Assay results published in EP4763221A1 (Akeso Biopharma Co., Ltd., dated 2025).

Assays:
human HER3-his [1] = biological target: T1, human HER3-his (human, UniProt P21860 20-643); assay: indirect ELISA, huHER3-his coated at 0.5 µg/mL; antibody 0.012 nM; replicate 1
T1 construct: Coating antigen of the ELISA; also called huHER3-his; antigen human HER3-his; not shown: his tag

human HER3-his [2] = biological target: T1, human HER3-his; assay: indirect ELISA, huHER3-his coated at 0.5 µg/mL, goat anti-human IgG Fc-HRP
human HER3-his [3] = biological target: T1, human HER3-his; assay: indirect ELISA, huHER3-his coated at 0.5 µg/mL; antibody 0.037 nM; replicate 1
human HER3-his [4] = biological target: T1, human HER3-his; assay: indirect ELISA, huHER3-his coated at 0.5 µg/mL; antibody 0.001 nM; replicate 2
human HER3-his [5] = biological target: T1, human HER3-his; assay: indirect ELISA, huHER3-his coated at 0.5 µg/mL; antibody 0.037 nM; replicate 2
human HER3-his [6] = biological target: T1, human HER3-his; assay: indirect ELISA, huHER3-his coated at 0.5 µg/mL; antibody 0.333 nM; replicate 1
human HER3-his [7] = biological target: T1, human HER3-his; assay: indirect ELISA, huHER3-his coated at 0.5 µg/mL; antibody 0 nM (blank, background); replicate 1
[8] = biological target: T2, HER3 on SK-BR-3 cell surface (UniProt P21860 20-1342, limits assumed); assay: FACS on SK-BR-3 cells, anti-human IgG Fc-Alexa Fluor 647 detection
T2 construct: whole, on cells; The target is the HER3 carried on SK-BR-3 cells; also called surface HER3 of SK-BR-3 cells; SK-BR-3 cells expressing HER3

human HER3-his [9] = biological target: T1, human HER3-his; assay: indirect ELISA, huHER3-his coated at 0.5 µg/mL; antibody 0.333 nM; replicate 2
human HER3-his [10] = biological target: T1, human HER3-his; assay: indirect ELISA, huHER3-his coated at 0.5 µg/mL; antibody 0.111 nM; replicate 1
human HER3-his [11] = biological target: T1, human HER3-his; assay: indirect ELISA, huHER3-his coated at 0.5 µg/mL; antibody 0.012 nM; replicate 2
human HER3-his [12] = biological target: T1, human HER3-his; assay: indirect ELISA, huHER3-his coated at 0.5 µg/mL; antibody 0.004 nM; replicate 2
human HER3-his [13] = biological target: T1, human HER3-his; assay: indirect ELISA, huHER3-his coated at 0.5 µg/mL; antibody 1.000 nM; replicate 1
human HER3-his [14] = biological target: T1, human HER3-his; assay: indirect ELISA, huHER3-his coated at 0.5 µg/mL; antibody 0.001 nM; replicate 1
human HER3-his [15] = biological target: T1, human HER3-his; assay: indirect ELISA, huHER3-his coated at 0.5 µg/mL; antibody 0.111 nM; replicate 2
human HER3-his [16] = biological target: T1, human HER3-his; assay: indirect ELISA, huHER3-his coated at 0.5 µg/mL; antibody 0.004 nM; replicate 1
human HER3-his [17] = biological target: T1, human HER3-his; assay: indirect ELISA, huHER3-his coated at 0.5 µg/mL; antibody 1.000 nM; replicate 2
human HER3-his [18] = biological target: T1, human HER3-his; assay: indirect ELISA, huHER3-his coated at 0.5 µg/mL; antibody 0 nM (blank, background); replicate 2

B1: anti-HER3 monoclonal antibody patritumab (antibody, human IgG1, kappa, V domains shown)
VH: QVQLQQWGAGLLKPSETLSLTCAVYGGSFSGYYWSWIRQPPGKGLEWIGEINHSGSTNYNPSLKSRVTISVETSKNQFSLKLSSVTAADTAVYYCARDKWTWYFDLWGRGTLVTVSS
VL: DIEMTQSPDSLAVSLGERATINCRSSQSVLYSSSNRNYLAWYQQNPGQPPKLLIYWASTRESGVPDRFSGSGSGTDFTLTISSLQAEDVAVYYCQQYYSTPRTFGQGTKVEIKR
notes: IgG1/kappa, expressed in 293F cells; also called HER3-targeted monoclonal antibody patritumab
absorbance at 450 nm (human HER3-his [1]): 1.78 OD450
EC50 (human HER3-his [2]): 0.009 nM
absorbance at 450 nm (human HER3-his [3]): 2.57 OD450
absorbance at 450 nm (human HER3-his [4]): 0.394 OD450
absorbance at 450 nm (human HER3-his [5]): 2.57 OD450
absorbance at 450 nm (human HER3-his [6]): 2.89 OD450
absorbance at 450 nm (human HER3-his [7]): 0.091 OD450
EC50 [8]: 8.48 nM
absorbance at 450 nm (human HER3-his [9]): 2.86 OD450
absorbance at 450 nm (human HER3-his [10]): 2.83 OD450
absorbance at 450 nm (human HER3-his [11]): 1.77 OD450
absorbance at 450 nm (human HER3-his [12]): 0.872 OD450
absorbance at 450 nm (human HER3-his [13]): 2.87 OD450
absorbance at 450 nm (human HER3-his [14]): 0.382 OD450
absorbance at 450 nm (human HER3-his [15]): 2.79 OD450
absorbance at 450 nm (human HER3-his [16]): 0.87 OD450
absorbance at 450 nm (human HER3-his [17]): 2.84 OD450
absorbance at 450 nm (human HER3-his [18]): 0.087 OD450
